Test results published in patent US4748122A, “2,5-diketo-D-gluconic acid reductase” (Shionogi & Co., Ltd., priority 1983, dated 1988).
“And” between values parts separate entries of the source, which are not always exact repeats. Identical values can stand only once.

Assays:
[1] = Optimum pH and range of reaction temperature of the enzyme; type: biochemical
Experimental: In order to clarify the relation between the reaction velocity of the 25DKG-Rase and pH, the enzymatic activities were measured by using the following buffers in place of the buffer of the reaction system in (5)-(ii).
The results of the measurements of the enzymatic activities on the substrates, Ca-25DKG and 5KF at the respective pHs are shown in Table 4 below.
The reaction velocities in the reaction system of (5)-(ii) which employs the substrate, Ca-25DKG were measured at varying temperatures from 15° to 50° C.
Enzymatic activities of 25DKG-Rases obtained from K-106 and T-13 were measured at varying pH from 4 to 9 (substrate: Ca-25DKG, reaction temperature: 30° C.).

[2] = pH stability of the enzyme (residual activities after treatment in buffers); type: physicochemical
Experimental: (determined on the basis of residual activities after treatments in 0.1M dimethylglutaric acid buffer for pH 4-5, in 0.1M Good buffer (PIPES) for pH 6-7 and in 0.1M Tris-HCl buffer for ph 8-9 at 28° C. for 30 minutes). Residual activity of 70% or more is recognized in pH 5-7 while only those of 30% or less are recognized in pH 4 or below, and in pH 8 or above.
Ninety-six (96) % or more of the activity is lost after being stood at pH 4 or below, or pH 8 or above and at 28° C. for 2 hours.

[3] = Isoelectric point electrophoresis of the enzyme; type: physicochemical
Experimental: (10) Isoelectric point: pH 4.4±0.3 (measured by isoelectric point electrophoresis).
Five (5) μl of the enzyme solution was then subjected to isoelectric point electrophoresis (gel; polyacrylamide: conditions of phoresis(a); pH interval 2.5-5; anode electrolyte=0.1M H2 SO4 cathode electrolyte=0.1M NaOH, 6W, 2,700 VH: conditions of phoresis(b); pH interval 4.0-6.5; anode electrolyte=0.04M DL-glutamic acid, cathode electrolyte=0.2M NaOH, 25W, 2,600 VH; temperature, 18°-20° C.) to give a result that the enzyme migrated in a single band at a position which corresponds to pH 4.4±0.2. From the previously-describedfacts, it was confirmed that the purified enzyme solution was one which solely contains 25DKG-Rase.

With “2,5-diketo-D-gluconic acid reductase [25DKG-Rase]” the “optimum pH” value [1] was 6-7 pH, the pH stability ([2]; 28° C. for 30 minutes in 0.1M buffers) was 5-7 pH and the Residual activity ([2]; pH 4 or below, and pH 8 or above, 28° C. for 30 minutes) was no more than 30%. For the same substance, the activity lost ([2]; pH 4 or below, or pH 8 or above, 28° C. for 2 hours) was no less than 96%, the Residual activity ([2]; pH 5-7, 28° C. for 30 minutes) was no less than 70% and the isoelectric point [3] was 4.4±0.2 pH and 4.4±0.3 pH.
